Measured values from patent US20250076311A1 (Chugai, published 2025).

T1: human FcγRIIaR extracellular domain with C-terminal His-tag (human, UniProt P12318 34-217)
T1 construct: also called human FcgRIIaR; FcγRIIa (type R); not shown: His-tag added to C-terminus
T1 chain: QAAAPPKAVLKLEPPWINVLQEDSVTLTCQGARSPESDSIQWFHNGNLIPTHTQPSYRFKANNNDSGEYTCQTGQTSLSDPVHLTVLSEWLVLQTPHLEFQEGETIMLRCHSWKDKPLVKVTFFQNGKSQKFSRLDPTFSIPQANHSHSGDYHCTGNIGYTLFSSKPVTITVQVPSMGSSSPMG

T2: cynomolgus monkey FcγRIIa3 extracellular domain with C-terminal His-tag (cynomolgus monkey)
T2 construct: also called cyno FcgRIIa3; cynoFcγRIIa3; not shown: His-tag added to C-terminus
T2 chain: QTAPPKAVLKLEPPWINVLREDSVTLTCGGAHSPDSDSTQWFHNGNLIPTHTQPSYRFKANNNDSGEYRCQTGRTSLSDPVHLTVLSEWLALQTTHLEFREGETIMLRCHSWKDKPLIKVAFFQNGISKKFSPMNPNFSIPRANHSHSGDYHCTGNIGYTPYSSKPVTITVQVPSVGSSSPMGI

T3: cynomolgus monkey FcγRIIb extracellular domain with C-terminal His-tag (cynomolgus monkey)
T3 construct: also called cyno FcgRIIb; cynoFcγRIIb; not shown: His-tag added to C-terminus
T3 chain: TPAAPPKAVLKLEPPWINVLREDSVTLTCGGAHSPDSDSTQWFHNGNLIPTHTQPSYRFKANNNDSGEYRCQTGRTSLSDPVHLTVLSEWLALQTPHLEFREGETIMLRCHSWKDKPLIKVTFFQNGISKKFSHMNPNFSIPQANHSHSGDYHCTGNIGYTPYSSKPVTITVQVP

T4: cynomolgus monkey FcγRIIa2 extracellular domain with C-terminal His-tag (cynomolgus monkey)
T4 construct: also called cyno FcgRIIa2; cynoFcγRIIa2; not shown: His-tag added to C-terminus
T4 chain: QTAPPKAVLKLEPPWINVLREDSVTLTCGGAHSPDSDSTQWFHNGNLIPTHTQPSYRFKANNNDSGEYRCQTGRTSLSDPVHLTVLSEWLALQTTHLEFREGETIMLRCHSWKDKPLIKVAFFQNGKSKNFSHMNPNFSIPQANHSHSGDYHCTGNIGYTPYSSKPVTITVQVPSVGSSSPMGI

T5: human FcγRIIb extracellular domain with C-terminal His-tag (human, UniProt P31994 43-217)
T5 construct: also called human FcgRIIb; not shown: His-tag added to C-terminus
T5 sequence: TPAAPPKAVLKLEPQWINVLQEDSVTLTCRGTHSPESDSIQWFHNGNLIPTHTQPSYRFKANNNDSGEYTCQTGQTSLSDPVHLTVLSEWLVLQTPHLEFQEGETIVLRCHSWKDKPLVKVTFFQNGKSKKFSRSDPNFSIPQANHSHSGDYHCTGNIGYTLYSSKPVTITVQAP

B1: M103205H795-MY168/M103202L889-SK1 (antibody, human IgG1, kappa, name in EU numbering)
heavy: QVTLKESGPVLVKPTETLTLTCTVSGIDLSHDDISWVRQAPGKGLEWVGIISYAGSTYYASWAKGRLTISKDTSKNQVVLTMTNMDPVDTATYYCARGVPAYSHGGDLWGQGTLVTVSSASTKGPSVFPLAPSSKSTSGGTAALGCLVKDYFPEPVTVSWNSGALTSGVHTFPAVLQSSGLYSLSSVVTVPSSSLGTQTYICNVNHKPSNTKVDKKVEPKSCDKTHTCPPCPAPELLNGPSVFLFPPKPKDTLMISRTPEVTCVVVDVSEEDPEVKFNWYVDGVEVHNAKTKPREEQYNSTYRVVSVLTVLHQDWLNGKEYKCKVSNKALPAPIEKTISKAKGQPREPQVYTLPPSREEMTKNQVSLTCLVKGFYPSDIAVEWESNGQPENNYKTTPAVLDSDGSFFLYSKLTVDKSRWQQGNVFSCSVMHEALHNHYTQKSLSLSP
light: DIVMTQSPATLSLSPGERATLSCTSSQSVYHANWLSWFQQKPGQPPKLLIYWASTLAYGVPSRFSGSGSGTDFTLTISSLQPEDAATYYCAGGYGGGRYAFGQGTKVEIKRTVAAPSVFIFPPSDEQLKSGTASVVCLLNNFYPREAKVQWKVDNALQSGNSQESVTEQDSKDSTYSLSSTLTLSKADYEKHKVYACEVTHQGLSSPVTKSFNRGEC
notes: EU numbering
B2: M103205H795-MY171/M103202L889-SK1 (antibody, human IgG1, kappa, name in EU numbering)
heavy: QVTLKESGPVLVKPTETLTLTCTVSGIDLSHDDISWVRQAPGKGLEWVGIISYAGSTYYASWAKGRLTISKDTSKNQVVLTMTNMDPVDTATYYCARGVPAYSHGGDLWGQGTLVTVSSASTKGPSVFPLAPSSKSTSGGTAALGCLVKDYFPEPVTVSWNSGALTSGVHTFPAVLQSSGLYSLSSVVTVPSSSLGTQTYICNVNHKPSNTKVDKKVEPKSCDKTHTCPPCPAPELLNGPSVFLFPPKPKDTLMISRTPEVTCVVVDVSEEDPEVKFNWYVDGVEVHNAKTKPREEQYNSTYRVVSVLTVLHQDWLNGKEYKCKVSNKALPAPIEKTISKAKGQPREPQVYTLPPSREEMTKNQVSLTCLVKGFYPSDIAVEWESNGQPENNYKTTPFVLDSDGSFFLYSKLTVDKSRWQQGNVFSCSVMHEALHNHYTQKSLSLSP
light: DIVMTQSPATLSLSPGERATLSCTSSQSVYHANWLSWFQQKPGQPPKLLIYWASTLAYGVPSRFSGSGSGTDFTLTISSLQPEDAATYYCAGGYGGGRYAFGQGTKVEIKRTVAAPSVFIFPPSDEQLKSGTASVVCLLNNFYPREAKVQWKVDNALQSGNSQESVTEQDSKDSTYSLSSTLTLSKADYEKHKVYACEVTHQGLSSPVTKSFNRGEC
notes: EU numbering
B3: M103205H795-MY176/M103202L889-SK1 (antibody, human IgG1, kappa, name in EU numbering)
heavy: QVTLKESGPVLVKPTETLTLTCTVSGIDLSHDDISWVRQAPGKGLEWVGIISYAGSTYYASWAKGRLTISKDTSKNQVVLTMTNMDPVDTATYYCARGVPAYSHGGDLWGQGTLVTVSSASTKGPSVFPLAPSSKSTSGGTAALGCLVKDYFPEPVTVSWNSGALTSGVHTFPAVLQSSGLYSLSSVVTVPSSSLGTQTYICNVNHKPSNTKVDKKVEPKSCDKTHTCPPCPAPELLNGPSVFLFPPKPKDTLMISRTPEVTCVVVDVSEEDPEVKFNWYVDGVEVHNAKTKPREEQYNSTYRVVSVLTVLHQDWLNGKEYKCKVSNKALPAPIEKTISKAKGQPREPQVYTLPPSREEMTKNQVSLTCLVKGFYPSDIAVEWESNGQPENNYKTTPLVLDSDGSFFLYSKLTVDKSRWQQGNVFSCSVMHEALHNHYTQKSLSLSP
light: DIVMTQSPATLSLSPGERATLSCTSSQSVYHANWLSWFQQKPGQPPKLLIYWASTLAYGVPSRFSGSGSGTDFTLTISSLQPEDAATYYCAGGYGGGRYAFGQGTKVEIKRTVAAPSVFIFPPSDEQLKSGTASVVCLLNNFYPREAKVQWKVDNALQSGNSQESVTEQDSKDSTYSLSSTLTLSKADYEKHKVYACEVTHQGLSSPVTKSFNRGEC
notes: EU numbering

Columns and labels:
Test in all cases: SPR Biacore, antibody captured, FcgR analyte
[1] = target: T1, human FcγRIIaR extracellular domain …
[2] = target: T2, cynomolgus monkey FcγRIIa3 …
[3] = target: T3, cynomolgus monkey FcγRIIb extracellular …
[4] = target: T6, cynomolgus monkey FcγRIIIaS extracellular domain with C-terminal His-tag (cynomolgus monkey, UniProt A3RFZ7 21-206 (rhesus entry))
T6 construct: also called cyno FcgRIIIaS; cynoFcγRIIIaS; not shown: His-tag added to C-terminus
T6 sequence (A3RFZ7 21-206): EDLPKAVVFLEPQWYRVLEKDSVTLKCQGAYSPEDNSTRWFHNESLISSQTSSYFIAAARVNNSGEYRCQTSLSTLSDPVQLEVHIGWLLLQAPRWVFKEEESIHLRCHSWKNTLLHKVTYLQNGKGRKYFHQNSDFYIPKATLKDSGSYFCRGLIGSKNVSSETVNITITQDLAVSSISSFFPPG

[5] = target: T4, cynomolgus monkey FcγRIIa2 …
[6] = target: T5, human FcγRIIb extracellular domain with …
[7] = target: T7, human FcγRIIIaV extracellular domain with C-terminal His-tag (human, UniProt P08637 17-208)
T7 construct: also called human FcgRIIIaV; not shown: His-tag added to C-terminus
T7 sequence (P08637 17-208 F176V): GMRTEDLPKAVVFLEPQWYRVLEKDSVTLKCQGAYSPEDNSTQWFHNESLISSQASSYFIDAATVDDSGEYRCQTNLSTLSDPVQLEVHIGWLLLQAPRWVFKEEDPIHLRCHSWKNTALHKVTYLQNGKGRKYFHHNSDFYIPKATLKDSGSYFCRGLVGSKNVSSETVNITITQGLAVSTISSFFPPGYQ

Row | Binder | Kd [1] [nM] | Kd [2] [nM] | Kd [3] [nM] | KD fold (SG1 = 1) [4] [fold] | Kd [4] [nM] | KD fold (SG1 = 1) [2] [fold] | Kd [5] [nM] | Kd [6] [nM] | KD fold (SG1 = 1) [3] [fold] | KD fold (SG1 = 1) [1] [fold] | Kd [7] [nM] | KD fold (SG1 = 1) [6] [fold]
1 | B1 | 2800 | 1000 | 12 | 0.08 | 4500 | – | – | – | – | – | – | –
2 | B2 | 2300 | 9200 | 9800 | 0.11 | 3300 | 1.5 | 2300 | 1200 | 1.5 | – | – | –
3 | B3 | – | 6000 | – | 0.16 | 2200 | – | – | 700 | 1 | 0.1 | 6200 | 6.5
